According to patent publication US12497593B2, “Generation of hematopoietic progenitor cells from human pluripotent stem cells” (Wisconsin Alumni Research Foundation, priority 2018, dated 2025):

System: human pluripotent stem cells provided at high cell density
Assay: Hematopoietic cell formation in high cell density differentiation culture
Type: cell-based
Conditions: with 50 ng/ml BMP4
Description: FIGS. 1A-1F concern hematopoietic cell differentiation in accord with the invention. […] Cells in high cell density methods of the experiments depicted in this figure were plated at 1.1×10^5 cells/cm^2. Cells in low cell density methods of the experiments depicted in this figure were plated at 1.8×10^4 cells/cm^2. The photographs of FIG. 1B show cell morphology of cells of each culture at day 10. […] The hematopoietic cells could be cryopreserved at day 10 (90% FBS+10% DMSO) and hemangioblasts can be cryopreserved at day 6.
FIG. 2A-2D show Notch and YAP signaling in the low and high density cell cultures. FIGS. 2A-2B show immunostaining of YAP and NICD1 (Notch intra-cellular domain). […] Cells cultured at high density were treated with or without 10 μM DAPT (a Notch inhibitor) from day 2-10.
FIGS. 3A-3E show BMP4 signaling in the low and high density cell cultures. […] Cells were cultured at high density with or without 50 ng/ml BMP4. […] Cells were cultured at low density with or without LDN (a BMP signaling inhibitor).
Cell-cell contact regulates arterial endothelial cells and hemangioblast cell fate determination—Endothelial-to-hematopoietic stem cell transition occurs in aorta-gonad-mesonephros region. We therefore investigated whether human pluripotent stem cell-derived arterial endothelial cells can be reprogrammed into hematopoietic stem cells. […]

B1: BMP4: Bone Morphogenetic Protein 4, added at 50 ng/ml to high density culture (protein, UniProt P12644 293-408, looked up)
Bone morphogenetic protein 4: SPKHHSQRARKKNKNCRRHSLYVDFSDVGWNDWIVAPPGYQAFYCHGDCPFPLADHLNSTNHAIVQTLVNSVNSSIPKACCVPTELSAISMLYLDEYDKVVLKNYQEMVVEGCGCR
hematopoiesis (total hematopoietic cell number, cell morphology at day 10): promoted hematopoiesis
